Test results reported in paper PMC4742278, “BS69/ZMYND11 C-Terminal Domains Bind and Inhibit EBNA2” (PLoS Pathogens, 2016).

B1: BS69: emerging tumor suppressor, Adenovirus protein E1A and EBNA2-interacting protein (protein, UniProt Q15326 1-602, looked up)
Zinc finger MYND …: MARLTKRRQADTKAIQHLWAAIEIIRNQKQIANIDRITKYMSRVHGMHPKETTRQLSLAVKDGLIVETLTVGCKGSKAGIEQEGYWLPGDEIDWETENHDWYCFECHLPGEVLICDLCFRVYHSKCLSDEFRLRDSSSPWQCPVCRSIKKKNTNKQEMGTYLRFIVSRMKERAIDLNKKGKDNKHPMYRRLVHSAVDVPTIQEKVNEGKYRSYEEFKADAQLLLHNTVIFYGADSEQADIARMLYKDTCHELDELQLCKNCFYLSNARPDNWFCYPCIPNHELVWAKMKGFGFWPAKVMQKEDNQVDVRFFGHHHQRAWIPSENIQDITVNIHRLHVKRSMGWKKACDELELHQRFLREGRFWKSKNEDRGEEEAESSISSTSNEQLKVTQEPRAKKGRRNQSVEPKKEEPEPETEAVSSSQEIPTMPQPIEKVSVSTQTKKLSASSPRMLHRSTQTTNDGVCQSMCHDKYTKIFNDFKDRMKSDHKRETERVVREALEKLRSEMEEEKRQAVNKAVANMQGEMDRKCKQVKEKCKEEFVEEIKKLATQHKQLISQTKKKQWCYNCEEEAMYHCCWNTSYCSIKCQQEHWHAEHKRTCRRKR
B2: BS69CC-MYND: residues 440–562 of BS69/ZMYND11, tandem coiled-coil-MYND domains (protein, UniProt Q15326 440-562, looked up, fragment)
chain: TKKLSASSPRMLHRSTQTTNDGVCQSMCHDKYTKIFNDFKDRMKSDHKRETERVVREALEKLRSEMEEEKRQAVNKAVANMQGEMDRKCKQVKEKCKEEFVEEIKKLATQHKQLISQTKKKQW
modifications: coiled-coil-MYND domain FLAG tag
notes: residues 440–562 of BS69/ZMYND11, tandem coiled-coil-MYND domains

Key:
[1] = system: EBNA1-mediated transcriptional activation of OriP-Luc reporter; assay: OriP-Luc reporter assay (EBNA1-mediated transcription); format: cell-based, Epstein-Barr virus; settings: 10 μg EBNA1 expression plasmid, 5 μg OriP-Luc reporter
Excerpt: (§1) Cell culture and reporter gene assays for EBNA2-mediated transcription activation
(§2) The BS69CC-MYND dual domain, wild-type or the Q546A mutant, were inserted into a pCBS/FLAG mammalian expression vector [54], in which the BS69 fragments are preceded by a FLAG-tag. In the case of the Q546A/W550A BS69CC-MYND expression plasmid, the flanking DNA fragment was subcloned into the pSG5-Flag vector [55]. The EBNA2 expression vector harboring PXLXP1 or PXLXP2 mutations was generated by carrying out the PCR-based mutagenesis protocol provided by the manufactory (Stratagene). In each case, the codons of two prolines were replaced with the codons of alanine simultaneously. For EBNA2-dependent transcription reporter assays, 10 μg of the expression vector of EBNA2 (E2), 5 μg flag-BS69CC- MYND wild type, or Q546A plasmid, and 5 μg LMP1-Luc or Cp-Luc reporter plasmid, and 1 μg CMV-βGal control plasmid were co-transfected into BJAB cells following the protocol as described previously. For the parallel control, 10 μg EBNA1 expression plasmid and 5 μg OriP-Luc reporter plasmid were used instead. Luciferase and β-Gal activities were assayed by Orion L (Berthold). A DNA fragment encoding residues 375–465 of EBNA2 from EBV W91 strain [49] containing CR7 and CR8 of EBNA2 were inserted into pCD-Gal4(1–147) vector to generate pCD-Gal4-EBNA2(375–465), which encodes a GAL4-EBNA2 fusion protein. […]

EBNA2 [2] = assay: Confocal immunofluorescence of EBNA2 and BS69 in EBV-infected B cells; format: cell-based, Epstein-Barr virus; settings: EBV infected B cells at 1 and 3 dpi
Method: 5x10^4/per 100 μl primary B cells were cultured in RPMI 1640 supplemented with 15% fetal calf serum (FCS), 2 mM L-glutamine, and penicillin/streptomycin, and aliquoted into a 96-well plate. 100 μL previously purified EBV [52] or PBS (mock infection) was utilized as the inoculum. Cells were collected at 0, 1, 3, 5, and 7 days of post-infection (dpi) and BS69 mRNA expression in virus or mock -infected B cells were determined as the relative expression levels versus GAPDH by quantitative reverse transcription real time PCR (qRT-PCR). For Western blot analysis, a total of 5x10^5 B cells with EBV infection were collected at 0, 1, 4, and 7 dpi, respectively. The primers for BS69 are […] (F) and […] (R), whereas the primers for GAPDH internal control are […] (F) and […] (R). The primers for chromatin immunoprecipitati on assays of the LMP1 promoter and GAPDH promoter control have been described previously. The amount of ChIPed DNA was quantified by real time PCR and represented as % of input DNA. For Immunofluorescence analysis (IFA), cells were fixed in 2% paraformaldehyde (Sigma) and subjected to an immunostaining protocol using antibodies for BS69 (Santa Cruz), and EBNA2 (Santa Cruz). […]

cancer cell growth = settings: in vitro and in vivo; cited from earlier work
Excerpt: BS69 (ZMYND11) is an emerging tumor suppressor [19–21] that was originally identified as the Adenovirus protein E1A and EBNA2-interacting protein [22, 23]. […] BS69 contains, in addition to a C-terminal MYND (MYeloid translocation protein 8, Nervy and DEAF-1) domain, an N-terminal Plant Homo Domain (PHD) zinc finger, a Bromo domain and a PWWP domain.

EBNA2 [3] = assay: Co-immunoprecipitation of EBNA2 with flag-BS69CC-MYND in BJAB cells; format: cell-based, Epstein-Barr virus; settings: anti-flag M2 IP, Western blot
Excerpt: To address whether the BS69 C-terminal domain, if expressed, interacts with EBNA2 in vivo, we ectopically co-expressed flag-tagged wild-type, Q546A, or Q546A/W550A BS69CC-MYND with EBNA2 in BJAB cells, followed by immunoprecipitation using anti-flag M2-conjugated sepharose and Western blotting with antibodies against EBNA2 and M2, respectively. […] In addition, the immunofluorescence (IF) image pointed to a reduction of large amount of BS69 expression in EBV infected B cells at 5 dpi, confirming the barely low expression levels of BS69 shown in Fig 4B.
Co-immunoprecipitation, chromatin immunoprecipitation (ChIP), and western blot analyses
The transfection-mediated co-immunoprecipitation (Co-IP) assay was employed to identify the physical interaction of EBNA2 with BS69CC-MYND using EBV-negative B lymphoma cells (BJAB). Cells were co-transfected with the expression plasmids of EBNA2 (E2) and flag- BS69CC-MYND wild type, Q546A mutant (Q546A), or Q546A/W550A mutant (Q546A/W550A) and subjected to IP analysis using M2-conjugated sepharose (Sigma). […] The proteins were detected and visualized using an ECL detection kit (Millipore). […] The protein levels of endogenous BS69 in the obtained cell lines were determined by Western blot using BS69 antibody (Santa Cruz biotechnology). […] The proteins were detected and visualized using an ECL detection kit (Millipore).

[4] = system: LMP1-Luc reporter, EBNA2-mediated transcriptional activation; assay: LMP1-Luc reporter assay (EBNA2-mediated transcription) in BJAB cells; format: cell-based, Epstein-Barr virus; settings: 10 μg EBNA2 vector, 5 μg flag-BS69CC-MYND plasmid, 5 μg reporter
Excerpt: as §1, §2

[5] = system: Cp-Luc reporter, EBNA2-mediated transcriptional activation; assay: Cp-Luc reporter assay (EBNA2-mediated transcription) in BJAB cells; format: cell-based, Epstein-Barr virus; settings: 10 μg EBNA2 vector, 5 μg flag-BS69CC-MYND plasmid, 5 μg reporter
Excerpt: as §1, §2

[6] = system: G5-TK-Luc reporter, Gal4-EBNA2 transcriptional activation; assay: G5-TK-Luc reporter assay with Gal4-EBNA2 in HeLa cells; format: cell-based; settings: 10 ng BS69CC-MYND expression vector, relative to no Gal4 activator (set to 1), means of minimum 3 independent experiments each in triplicates
Excerpt: as §1
The BS69CC-MYND dual domain, wild-type or the Q546A mutant, were inserted into a pCBS/FLAG mammalian expression vector [54], in which the BS69 fragments are preceded by a FLAG-tag. In the case of the Q546A/W550A BS69CC-MYND expression plasmid, the flanking DNA fragment was subcloned into the pSG5-Flag vector [55]. The EBNA2 expression vector harboring PXLXP1 or PXLXP2 mutations was generated by carrying out the PCR-based mutagenesis protocol provided by the manufactory (Stratagene). In each case, the codons of two prolines were replaced with the codons of alanine simultaneously. […]
Supplementary file ppat.1005414.s003.tif: S3 Fig In vivo transcription assays of G5-TK-Luc reporter gene. (A) The expression of Flag-tagged wild-type or Q546A BS69CC-MYND in HeLa cells was analyzed by Western blotting using anti-flag M2 monoclonal antibody. […] (B) Relative transcription activation by GAL4 DBD, Gal4-EBNA2 and Gal4-VP16 was analyzed in transfected HeLa cells in the absence or presence of 10 ng expression vector for wild-type BS69CC-MYND or its Q546A mutant. […]

LMP1-DNA (LMP1 promoter) = assay: ChIP at LMP1 promoter DNA in transfected BJAB cells; format: cell-based, Epstein-Barr virus; settings: M2 ChIP
Excerpt: To determine whether BS69CC-MYND is able to associate with EBNA2 target promoters through protein-protein interactions, we performed Chromatin Immunoprecipitation (ChIP) assays using BJAB cells, in which flag-tagged wild-type, Q546A, or […] BS69CC-MYND was co-transfected with or without EBNA2 expression vector and a reporter plasmid containing the LMP1 promoter, LMP1-Luc. […] On the other hand, an EBNA2 ChIP brought down ~13% of LMP1-DNA, consistent with the fact that LMP1 is one of the target sites of EBNA2 [35, 36].
5x10^4/per 100 μl primary B cells were cultured in RPMI 1640 supplemented with 15% fetal calf serum (FCS), 2 mM L-glutamine, and penicillin/streptomycin, and aliquoted into a 96-well plate. […] Cells were collected at 0, 1, 3, 5, and 7 days of post-infection (dpi) and BS69 mRNA expression in virus or mock -infected B cells were determined as the relative expression levels versus GAPDH by quantitative reverse transcription real time PCR (qRT-PCR). […] The amount of ChIPed DNA was quantified by real time PCR and represented as % of input DNA. […]
The transfection-mediated co-immunoprecipitation (Co-IP) assay was employed to identify the physical interaction of EBNA2 with BS69CC-MYND using EBV-negative B lymphoma cells (BJAB). […] The proteins were detected and visualized using an ECL detection kit (Millipore). […]

| Molecule | suppression of EBNA1-mediated transcriptional activation of OriP-Luc [1] | colocalization of EBNA2 and BS69 (EBNA2 [2]) | effect of BS69 overexpression on cancer cell growth (cancer cell growth) | EBNA2 co-precipitation (EBNA2 [3]) | relative transcriptional activation by EBNA2 in presence of BS69CC-MYND, LMP1-Luc [4] [fold] | relative transcriptional activation by EBNA2 in presence of BS69CC-MYND, Cp-Luc [5] [fold] | activation of G5-TK-Luc by Gal4-EBNA2 in presence of BS69CC-MYND [6] | ChIPed LMP1-DNA (LMP1-DNA (LMP1 promoter); absence of EBNA2 (similar to IgG negative control)) | ChIPed LMP1-DNA (LMP1-DNA (LMP1 promoter); presence of EBNA2, % of input DNA) |
| --- | --- | --- | --- | --- | --- | --- | --- | --- | --- |
| B1 | failed to suppress | colocalization of EBNA2 and BS69 appeared | suppresses cancer cell growth both in vitro and in vivo |  |  |  |  |  |  |
| B2 |  |  |  | EBNA2 co-precipitates with wild-type flag-tagged BS69CC-MYND | ≤ 2 | ≤ 2 | less than 4 fold | 7–8 % over input DNA | ~ 17% |
